According to paper PMC10249358 (2023):

B1: NOP53(192–207) peptide displayed on M13 phage [human] / GST-tagged merlin FERM domain [human] (parent complex)
chain 1: FYDLWASDNPLDRPLV
chain 2: FTVRIVTMDAEMEFNCEMKWKGKDLFDLVCRTLGLRETWFFGLQYTIKDTVAWLKMDKKVLDHDVSKEEPVTFHFLAKFYPENAEEELVQEITQHLFFLQVKKQILDEKIYCPPEASVLLASYAVQAKYGDYDPSVHKRGFLAQEELLPKRVINLYQMTPEMWEERITAWYAEHRGRARDEAEMEYLKIAQDLEMYGVNYFAIRNKKGTELLLGVDALGLHIYDPENRLTPKISFPWNEIRNISYSDKEFTIKPLDKKIDVFKFNSSKLRVNKLILQLCIGNHDLFMRRRK
B2: FAM83G(111–126) peptide displayed on M13 phage [human] / GST-tagged merlin FERM domain [human] (parent complex)
chain 1: AEPLPSLEYWPQKSDR
chain 2: B1 chain 2

Variants of: B1
Assay: clonal phage ELISA; ratio of A450 on immobilized GST-merlin to A450 on GST, normalized to 100% of WT peptide; no-peptide phage control est. 32%; read off a plot

**Q.** For chain 1 KYDLWASDNPLDRPLV [chain 1 F1K], which percent of parent is on record?
**A.** Its percent of parent is roughly 29 % binding.

**Q.** Which percent of parent does the source give for chain 1 FYDLWASDNPLDRKLV [chain 1 P14K] here?
**A.** Its percent of parent is roughly 50 % binding.

**Q.** Which percent of parent does the source give for chain 1 FYDLWAADNPLDRPLV [chain 1 S7A] here?
**A.** The percent of parent was roughly 120 % binding.

**Q.** chain 1 FKDLWASDNPLDRPLV [chain 1 Y2K] was tested. Which percent of parent did it give?
**A.** The percent of parent was roughly 16 % binding.

**Q.** For chain 1 FYDLWASDNPKDRPLV [chain 1 L11K], which percent of parent is on record?
**A.** The percent of parent was roughly 14 % binding.

**Q.** For chain 1 FYDLWASDAPLDRPLV [chain 1 N9A], which percent of parent is on record?
**A.** The percent of parent was roughly 93 % binding.

**Q.** chain 1 FYDLWASANPLDRPLV [chain 1 D8A] was tested. Which percent of parent did it give?
**A.** Its percent of parent is roughly 110 % binding.

**Q.** How did the percent of parent turn out when chain 1 FYDLWASKNPLDRPLV [chain 1 D8K] was run?
**A.** The percent of parent was roughly 94 % binding.

**Q.** For chain 1 FYDLWASDNPLDRPKV [chain 1 L15K], which percent of parent is on record?
**A.** The percent of parent was roughly 16 % binding.

**Q.** How did the percent of parent turn out when chain 1 FYDLWASDNPLARPLV [chain 1 D12A] was run?
**A.** Its percent of parent is roughly 24 % binding.

**Q.** For chain 1 FYDLKASDNPLDRPLV [chain 1 W5K], which percent of parent is on record?
**A.** Its percent of parent is roughly 31 % binding.

**Q.** chain 1 FYDLWASDNKLDRPLV [chain 1 P10K] was tested. Which percent of parent did it give?
**A.** The percent of parent was roughly 26 % binding.

**Q.** For chain 1 FYDKWASDNPLDRPLV [chain 1 L4K], which percent of parent is on record?
**A.** Its percent of parent is roughly 29 % binding.

**Q.** chain 1 FYDLWKSDNPLDRPLV [chain 1 A6K] was tested. Which percent of parent did it give?
**A.** The percent of parent was roughly 59 % binding.

**Q.** With chain 1 FYALWASDNPLDRPLV [chain 1 D3A] as the variant, how does the percent of parent read?
**A.** Its percent of parent is roughly 29 % binding.

**Q.** Which percent of parent does the source give for chain 1 FYKLWASDNPLDRPLV [chain 1 D3K] here?
**A.** Its percent of parent is roughly 33 % binding.

**Q.** How did the percent of parent turn out when chain 1 FYDLWASDNPLDRPLK [chain 1 V16K] was run?
**A.** Its percent of parent is roughly 61 % binding.

**Q.** Which percent of parent does the source give for chain 1 FYDLWASDNPLDAPLV [chain 1 R13A] here?
**A.** Its percent of parent is roughly 97 % binding.

Variants of: B2
Assay: clonal phage ELISA; ratio of A450 on immobilized GST-merlin to A450 on GST, normalized to 100% of WT peptide; no-peptide phage control est. 29%; read off a plot

**Q.** For chain 1 AEPLPSLEYWPQKSDA [chain 1 R16A], which percent of parent is on record?
**A.** The percent of parent was roughly 99 % binding.

**Q.** chain 1 AEPLPSLEYWPQKADR [chain 1 S14A] was tested. Which percent of parent did it give?
**A.** Its percent of parent is roughly 98 % binding.

**Q.** How did the percent of parent turn out when chain 1 AEPLPSLEDWPQKSDR [chain 1 Y9D] was run?
**A.** Its percent of parent is roughly 13 % binding.

**Q.** Which percent of parent does the source give for chain 1 AEPLPSLEKWPQKSDR [chain 1 Y9K] here?
**A.** The percent of parent was roughly 21 % binding.

**Q.** For chain 1 AEPLPSKEYWPQKSDR [chain 1 L7K], which percent of parent is on record?
**A.** The percent of parent was roughly 84 % binding.

**Q.** chain 1 AEPKPSLEYWPQKSDR [chain 1 L4K] was tested. Which percent of parent did it give?
**A.** Its percent of parent is roughly 86 % binding.

**Q.** With chain 1 AEPLPSLAYWPQKSDR [chain 1 E8A] as the variant, how does the percent of parent read?
**A.** The percent of parent was roughly 17 % binding.

**Q.** With chain 1 AEPLPELEYWPQKSDR [chain 1 S6E] as the variant, how does the percent of parent read?
**A.** The percent of parent was roughly 88 % binding.

**Q.** chain 1 AEPLPSLEYKPQKSDR [chain 1 W10K] was tested. Which percent of parent did it give?
**A.** The percent of parent was roughly 23 % binding.

**Q.** Which percent of parent does the source give for chain 1 AEPLKSLEYWPQKSDR [chain 1 P5K] here?
**A.** Its percent of parent is roughly 68 % binding.

**Q.** For chain 1 AEPLPSLEYWKQKSDR [chain 1 P11K], which percent of parent is on record?
**A.** Its percent of parent is roughly 19 % binding.

**Q.** Which percent of parent does the source give for chain 1 AEPLPSLEYWPQKSAR [chain 1 D15A] here?
**A.** Its percent of parent is roughly 110 % binding.

**Q.** How did the percent of parent turn out when chain 1 AEPLPSLEYWPQASDR [chain 1 K13A] was run?
**A.** Its percent of parent is roughly 91 % binding.

**Q.** Which percent of parent does the source give for chain 1 AEPLPSLEYWPQDSDR [chain 1 K13D] here?
**A.** Its percent of parent is roughly 81 % binding.

**Q.** Which percent of parent does the source give for chain 1 AEPLPSLEYWPAKSDR [chain 1 Q12A] here?
**A.** Its percent of parent is roughly 76 % binding.
